T1: FLAG-CTCF-6xHis (UniProt Q61164 1-736)
T1 sequence: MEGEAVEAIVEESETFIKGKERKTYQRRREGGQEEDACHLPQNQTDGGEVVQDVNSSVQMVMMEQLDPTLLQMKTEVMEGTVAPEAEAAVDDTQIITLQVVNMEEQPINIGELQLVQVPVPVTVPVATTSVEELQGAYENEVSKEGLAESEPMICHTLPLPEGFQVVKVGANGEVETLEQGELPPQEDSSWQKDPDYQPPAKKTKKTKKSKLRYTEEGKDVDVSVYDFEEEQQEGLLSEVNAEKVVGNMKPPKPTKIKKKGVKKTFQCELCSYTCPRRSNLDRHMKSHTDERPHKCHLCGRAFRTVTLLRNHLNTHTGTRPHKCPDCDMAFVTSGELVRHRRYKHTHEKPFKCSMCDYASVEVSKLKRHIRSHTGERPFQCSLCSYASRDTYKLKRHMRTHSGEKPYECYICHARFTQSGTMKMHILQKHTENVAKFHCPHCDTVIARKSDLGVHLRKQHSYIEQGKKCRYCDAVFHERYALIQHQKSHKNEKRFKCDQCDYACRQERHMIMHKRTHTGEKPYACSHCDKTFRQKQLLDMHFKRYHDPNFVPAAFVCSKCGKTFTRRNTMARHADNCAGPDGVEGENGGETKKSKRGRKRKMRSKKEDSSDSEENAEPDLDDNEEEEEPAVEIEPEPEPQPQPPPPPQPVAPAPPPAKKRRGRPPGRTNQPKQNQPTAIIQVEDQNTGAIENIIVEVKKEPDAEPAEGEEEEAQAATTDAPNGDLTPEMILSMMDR


Key:
FLAG-CTCF-6xHis [1] = molecular target: T1, FLAG-CTCF-6xHis; assay: competition
FLAG-CTCF-6xHis [2] = molecular target: T1, FLAG-CTCF-6xHis; assay: EMSA

Binder	binding result (FLAG-CTCF-6xHis [1])	binding result (FLAG-CTCF-6xHis [2])
P2 (dsDNA) DNA 1: GAATGTGTCTAAGATGGCGGAAGTCATGTGACCTGCCCTCTAGTGGTTTCTTTCAGTGATTTTTTTTTTGGCGGGCTTTA DNA 2: TAAAGCCCGCCAAAAAAAAAATCACTGAAAGAAACCACTAGAGGGCAGGTCACATGACTTCCGCCATCTTAGACACATTC	binds	
RS14C (dsDNA) DNA 1: CTATGCATTAGGTTTGGGTGTTATACCCGTGTAGGCCAGCAGAGGGTGTCGGATCCCAAGGAAACCAAGTTACAGACGCC DNA 2: GGCGTCTGTAACTTGGTTTCCTTGGGATCCGACACCCTCTGCTGGCCTACACGGGTATAACACCCAAACCTAATGCATAG		binds
Xist_5' (dsDNA) DNA 1: TTTGGCTTCAGATGCCTTGGAAAGATTCATGCTGCCACCTGCTGGTTTATTCAGTCTGTGTGCATCATTTATTTACTTGT DNA 2: ACAAGTAAATAAATGATGCACACAGACTGAATAAACCAGCAGGTGGCAGCATGAATCTTTCCAAGGCATCTGAAGCCAAA		binds
P1 (dsDNA) DNA 1: TTGTGGCCACTCCTCTTCTGGTCTCTCCGCCTTCAGCGCCGCGGATCAGTTAAAGGCGTGCAACGGCTTGCTCCAGCCAT DNA 2: ATGGCTGGAGCAAGCCGTTGCACGCCTTTAACTGATCCGCGGCGCTGAAGGCGGAGAGACCAGAAGAGGAGTGGCCACAA		no binding

Reference: publication PMC3777401
